Publication PMC5296763, “Structural basis for redox sensitivity in Corynebacterium glutamicum diaminopimelate epimerase: an enzyme involved in L-lysine biosynthesis” (Scientific Reports, 2017)

How the values were obtained:
CgDapF = target: T1, CgDapF (Corynebacterium glutamicum, UniProt Q8NP73); experiment: X-ray crystal structure, […] A; assay type: binding; details: crystallised with a 10 mM DAP isomer mixture (L,L, D,D, D,L), pH 9.0; only D,L-DAP density seen; active site
T1 construct: gene dapF

purified protein = substrate: N[C@@H](CCC[C@H](N)C(=O)O)C(=O)O; experiment: purified protein; assay type: biochemical, Corynebacterium glutamicum; details: 0.1 M potassium phosphate, pH 8.0, room temperature, 3.45 uM enzyme, substrate named in the assay method
[1] = target: the molecule itself; experiment: SEC; size-exclusion chromatography under both the oxidized and the reduced conditions; data not shown

For N[C@H](CCC[C@H](N)C(=O)O)C(=O)O [D,L-DAP], the “X-ray crystal structure, 2.6 A” value (CgDapF) was “we determined the crystal structure of the protein in complex with the D,L-DAP product”.

B1: CgDapF (Corynebacterium glutamicum ATCC 13032) (protein)
chain: MNLTIPFAKGHATENDFIIIPDEDARLDLTPEMVVTLCDRRAGIGADGILRVVKAADVEGSTVDPSLWFMDYRNADGSLAEMCGNGVRLFAHWLYSRGLVDNTSFDIGTRAGVRHVDILQADQHSAQVRVDMGIPDVTGLSTCDINGQVFAGLGVDMGNPHLACVVPGLSASALADMELRAPTFDQEFFPHGVNVEIVTELEDDAVSMRVWERGVGETRSCGTGTVAAACAALADAGLGEGTVKVCVPGGEVEVQIFDDGSTLTGPSAIIALGEVQI
B1 showed a Km (purified protein) of 1860 µM and a kcat (purified protein) of 58 s⁻¹.

B2: Diaminopimelate epimerase (DapF) from Corynebacterium glutamicum (enzyme, UniProt Q8NP73 1-277, looked up)
chain: B1 chain
modifications: selenomethionine-substituted (SeMet derivative) in the crystals of the oxidized and reduced forms (5H2G, 5H2Y)
notes: Diaminopimelate epimerase (DapF, EC 5.1.1.7) of Corynebacterium glutamicum strain ATCC 13032, gene amplified from genomic DNA and cloned in pET30a; also called CgDapF; DAP epimerase; source: E. coli B834(DE3), purified (Ni-NTA, size-exclusion chromatography on Superdex 200); not shown: His tag (from the Ni-NTA purification)
B2 was tested, and the “stoichiometry N” value [1] was 2.
